Experimental data from patent US20200370136.

Legend:
[1] = system: T7 RNA polymerase, SNAPf fusion, anchored on DNA origami tile (T7-chip) (bacteriophage T7?); settings: apparent Michaelis Km of transcription for externally diffusing gene; 10 mM MgCl2, 37 C; Vmax 34 nM/s
[2] = system: T7 RNA polymerase, SNAPf fusion (T7 RNAP-SNAPf), freely diffusing (bacteriophage T7?); settings: Michaelis Km of transcription; 10 mM MgCl2, 37 C; Vmax 62 nM/s

With “sfGFP gene with T7 promoter (942 nt transcript)” the K half [1] was 1010 nM and the K half [2] was 5.6 nM.
